# Measurements reported in patent publication US12295987B2, “Method of using a GIP/GLP1 co-agonist for diabetes” (Eli Lilly and Company, priority 2018, dated 2025).
# Numbered stars: 1 amine (or outer) side, 2 acyl side, 3 side chain; on linkers, the order of the positions; unused ones are H or OH. Square brackets hold non-standard residues; d marks the D form. Side chains are listed from the residue outwards. Ends that are not written are not given here. * marks the point of attachment. C20 diacid = O=C(O)CCCCCCCCCCCCCCCCCCC(=O)*; γGlu = O=C(O)[C@H](CCC(=O)[*:2])N[*:1]; αMeL = CC(C)C[C@](C)(N)C(=O)O; αMeK = C[C@](N)(CCCCN)C(=O)O; AEEA = NCCOCCOCC(=O)O; Aib = CC(C)(N)C(=O)O
# Molecular target: T1, human gastric inhibitory peptide receptor (hGIPR) (Homo sapiens, UniProt P48546)
# T1 construct: expressed in transfected cells; host or cells: HEK293
# T1 sequence (P48546 22-466): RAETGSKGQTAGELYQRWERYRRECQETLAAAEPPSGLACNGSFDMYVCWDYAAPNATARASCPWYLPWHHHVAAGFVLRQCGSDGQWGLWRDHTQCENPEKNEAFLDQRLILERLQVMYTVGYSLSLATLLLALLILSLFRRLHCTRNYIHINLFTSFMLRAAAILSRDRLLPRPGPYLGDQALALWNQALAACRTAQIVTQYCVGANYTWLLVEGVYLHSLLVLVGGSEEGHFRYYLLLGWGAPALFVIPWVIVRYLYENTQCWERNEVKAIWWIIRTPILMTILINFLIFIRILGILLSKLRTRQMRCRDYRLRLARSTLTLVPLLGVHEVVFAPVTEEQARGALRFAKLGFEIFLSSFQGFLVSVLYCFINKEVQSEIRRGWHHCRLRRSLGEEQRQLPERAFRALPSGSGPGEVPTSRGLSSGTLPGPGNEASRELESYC
# Experiment: cAMP pharmacological functional assay in presence of 0.1% casein, hGIPR
# Assay type: cell-based
# Settings: ratio of hGIPR to hGLP1R cAMP EC50 ratios
row,Substance,[hGIPR/hGLP1R] EC50 Ratio
1,"Y-Aib-EGT-αMeF(2F)-TSD-4Pal-SI-αMeL-LD-Orn-K((2-[2-(2-Amino-ethoxy)-ethoxy]-acetyl)2-(γGlu)-CO—(CH2)16—CO2H)AQ-Aib-EFI-(D-Glu)-αMeY-LIEGGPSSGAPPPS-NH2 (YXEGTXTSDXSIXLDXKAQXEFIXXLIEGGPSSGAPPPS; Aib, 4Pal, Orn, αMe residues, lipidated Lys, D-Glu, amide; (2)..(2) Xaa at position 2 is Aib; (6)..(6) Xaa at position 6 is alpha-MeF(2F); (10)..(10) Xaa at position 10 is 4Pal; (13)..(13) Xaa at position 13 is alpha-MeL; (16)..(16) Xaa at position 16 is Orn; MOD_RES (17)..(17) K at position 17 is chemically modified by conjugation of the epsilon-amino group of the K side chain with (2-[2-(2-amino-ethoxy)-ethoxy]-acetyl)2-(gamma-Glu)-CO-(CH2)16- CO2H; (20) [Peptide 4]",4.22
2,"Y-Aib-EGT-αMeF(2F)-TSDHSI-αMeL-LDEK((2-[2-(2-Amino-ethoxy)-ethoxy]-acetyl)2-(γGlu)-CO—(CH2)16—CO2H)AQ-Aib-TFI-(D-Glu)-YLIEGGPSSGAPPPS-NH2 (YXEGTXTSDHSIXLDEKAQXTFIXYLIEGGPSSGAPPPS; Aib, αMeF(2F), αMeL, D-Glu; C18 diacid lipidated K; amide; (2)..(2) Xaa at position 2 is Aib; (6)..(6) Xaa at position 6 is alpha-methyl-Phe(2F); (13)..(13) Xaa at position 13 is alpha-methyl-Leu; MOD_RES (17)..(17) Lys at position 17 is chemically modified by conjugation of the epsilon-amino group of the Lys side chain with (2-[2-(2-amino-ethoxy)-ethoxy]-acetyl)2-(gamma-Glu)-CO-(CH2)16- CO2H; (20)..(20) Xaa at position 20 is Aib; (24)..(24) Xaa at positi) [Peptide 169]",8.97
3,Y-Aib-EGTFTSDYSI-αMeL-LDEK((2-[2-(2-Amino-ethoxy)-ethoxy]-acetyl)2-(γGlu)-CO—(CH2)18—CO2H)AQ-αMeK-AFIEYLLEGGPSSGAPPPS-NH2 (Y[Aib]EGTFTSDYSI[αMeL]LDEK([AEEA-AEEA-γGlu-C20 diacid])AQ[αMeK]AFIEYLLEGGPSSGAPPPS-NH2; N-terminus assumed; SMILES CC[C@H](C)[C@H](NC(=O)[C@H](Cc1ccccc1)NC(=O)[C@H](C)NC(=O)[C@](C)(CCCCN)NC(=O)[C@H](CCC(N)=O)NC(=O)[C@H](C)NC(=O)[C@H](CCCCNC(=O)COCCOCCNC(=O)COCCOCCNC(=O)CC[C@H](NC(=O)CCCCCCCCCCCCCCCCCCC(=O)O)C(=O)O)NC(=O)[C@H](CCC(=O)O)NC(=O)[C@H](CC(=O)O)NC(=O)[C@H](CC(C)C)NC(=O)[C@](C)(CC(C)C)NC(=O)[C@@H](NC(=O)[C@H](CO)NC(=O)[C@H](Cc1ccc(O)cc1)NC(=O)[C@H](CC(=O)O)NC(=O)[C@H](CO)NC(=O)[C@@H](NC(=O)[C@H](Cc1ccccc1)NC(=O)[C@@H](NC(=O)CNC(=O)[C@H](CCC(=O)O)NC(=O)C(C)(C)NC(=O)[C@@H](N)Cc1ccc(O)cc1)[C@@H](C)O)[C@@H](C)O)[C@@H](C)CC)C(=O)N[C@@H](CCC(=O)O)C(=O)N[C@@H](Cc1ccc(O)cc1)C(=O)N[C@@H](CC(C)C)C(=O)N[C@@H](CC(C)C)C(=O)N[C@@H](CCC(=O)O)C(=O)NCC(=O)NCC(=O)N1CCC[C@H]1C(=O)N[C@@H](CO)C(=O)N[C@@H](CO)C(=O)NCC(=O)N[C@@H](C)C(=O)N1CCC[C@H]1C(=O)N1CCC[C@H]1C(=O)N1CCC[C@H]1C(=O)N[C@@H](CO)C(N)=O) [Peptide 21],4.85
4,"Y-Aib-EGT-αMeF-TSDYSI-αMeL-LDKK((2-[2-(2-Amino-ethoxy)-ethoxy]-acetyl)2-(γGlu)-CO—(CH2)18—CO2H)AQ-Aib-Aib-FIEYLIEGGPSSGAPPPS-NH2 (YXEGTXTSDYSIXLDKKAQXXFIEYLIEGGPSSGAPPPS; Aib, αMeF, αMeL; acylated lysine C20 diacid; amide; (2)..(2) Xaa at position 2 is Aib; (6)..(6) Xaa at position 6 is alpha-methyl-Phe; (13)..(13) Xaa at position 13 is alpha-methyl-Leu; MOD_RES (17)..(17) Lys at position 17 is chemically modified by conjugation of the epsilon-amino group of the Lys side chain with (2-[2-(2-amino-ethoxy)-ethoxy]-acetyl)2-(gamma-Glu)-CO-(CH2)18- CO2H; (20)..(20) Xaa at position 20 is Aib; (21)..(21) Xaa at position 2) [Peptide 143]",3.89
5,"Y-Aib-EGT-αMeF(2F)-TSDHSI-αMeL-LDEK((2-[2-(2-Amino-ethoxy)-ethoxy]-acetyl)2-CO—(CH2)18—CO2H)AQ-Aib-TFI-(D-Glu)-YLIEGGPSSGAPPPS-NH2 (YXEGTXTSDHSIXLDEKAQXTFIXYLIEGGPSSGAPPPS; Aib, αMeF(2F), αMeL, D-Glu; lipidated K; amide; (2)..(2) Xaa at position 2 is Aib; (6)..(6) Xaa at position 6 is alpha-methyl-Phe(2F); (13)..(13) Xaa at position 13 is alpha-methyl-Leu; MOD_RES (17)..(17) Lys at position 17 is chemically modified by conjugation of the epsilon-amino group of the Lys side chain with (2-[2-(2-amino-ethoxy)-ethoxy]-acetyl)2-CO-(CH2)18-CO2H; (20)..(20) Xaa at position 20 is Aib; (24)..(24) Xaa at position 24 is D-Gl) [Peptide 174]",4.99
6,"Y-Aib-EGT-αMeF(2F)-TSDYSI-αMeL-LDEK((2-[2-(2-Amino-ethoxy)-ethoxy]-acetyl)2-(γGlu)-CO—(CH2)16—CO2H)AQ-Aib-EFI-(D-Glu)-YLIEGGPSSG-NH2 (YXEGTXTSDYSIXLDEKAQXEFIXYLIEGGPSSG; Aib, αMe, D-Glu, C18 diacid lipidation, C-amide; (2)..(2) Xaa at position 2 is Aib; (6)..(6) Xaa at position 6 is alpha-methyl-Phe(2F); (13)..(13) Xaa at position 13 is alpha-methyl-Leu; MOD_RES (17)..(17) Lys at position 17 is chemically modified by conjugation of the epsilon-amino group of the Lys side chain with (2-[2-(2-amino-ethoxy)-ethoxy]-acetyl)2-(gamma-Glu)-CO-(CH2)16- CO2H; (20)..(20) Xaa at position 20 is Aib; (24)..(24) Xaa at positi) [Peptide 219]",5.69
7,"Y-Aib-EGT-αMeF(2F)-TSDHSI-αMeL-LDEK((2-[2-(2-Amino-ethoxy)-ethoxy]-acetyl)2-(γGlu)-CO—(CH2)14—CO2H)AQ-Aib-HFI-(D-Glu)-YLIEGGPSSGAPPPS-NH2 (YXEGTXTSDHSIXLDEKAQXHFIXYLIEGGPSSGAPPPS; Aib, αMeF(2F), αMeL, D-Glu; C16 diacid lipidated K; amide; (2)..(2) Xaa at position 2 is Aib; (6)..(6) Xaa at position 6 is alpha-methyl-Phe(2F); (13)..(13) Xaa at position 13 is alpha-methyl-Leu; MOD_RES (17)..(17) Lys at position 17 is chemically modified by conjugation of the epsilon-amino group of the Lys side chain with (2-[2-(2-amino-ethoxy)-ethoxy]-acetyl)2-(gamma-Glu)-CO-(CH2)14- CO2H; (20)..(20) Xaa at position 20 is Aib; (24)..(24) Xaa at positi) [Peptide 178]",9.77
8,Y-Aib-EGTFTSDYSI-αMeL-LDEK((2-[2-(2-Amino-ethoxy)-ethoxy]-acetyl)2-(γGlu)-CO—(CH2)18—CO2H)AQ-αMeK-AFIEYLLE-Aib-GPSSGAPPPS-NH2 (Y[Aib]EGTFTSDYSI[αMeL]LDEK([AEEA-AEEA-γGlu-C20 diacid])AQ[αMeK]AFIEYLLE[Aib]GPSSGAPPPS-NH2; N-terminus assumed; SMILES CC[C@H](C)[C@H](NC(=O)[C@H](Cc1ccccc1)NC(=O)[C@H](C)NC(=O)[C@](C)(CCCCN)NC(=O)[C@H](CCC(N)=O)NC(=O)[C@H](C)NC(=O)[C@H](CCCCNC(=O)COCCOCCNC(=O)COCCOCCNC(=O)CC[C@H](NC(=O)CCCCCCCCCCCCCCCCCCC(=O)O)C(=O)O)NC(=O)[C@H](CCC(=O)O)NC(=O)[C@H](CC(=O)O)NC(=O)[C@H](CC(C)C)NC(=O)[C@](C)(CC(C)C)NC(=O)[C@@H](NC(=O)[C@H](CO)NC(=O)[C@H](Cc1ccc(O)cc1)NC(=O)[C@H](CC(=O)O)NC(=O)[C@H](CO)NC(=O)[C@@H](NC(=O)[C@H](Cc1ccccc1)NC(=O)[C@@H](NC(=O)CNC(=O)[C@H](CCC(=O)O)NC(=O)C(C)(C)NC(=O)[C@@H](N)Cc1ccc(O)cc1)[C@@H](C)O)[C@@H](C)O)[C@@H](C)CC)C(=O)N[C@@H](CCC(=O)O)C(=O)N[C@@H](Cc1ccc(O)cc1)C(=O)N[C@@H](CC(C)C)C(=O)N[C@@H](CC(C)C)C(=O)N[C@@H](CCC(=O)O)C(=O)NC(C)(C)C(=O)NCC(=O)N1CCC[C@H]1C(=O)N[C@@H](CO)C(=O)N[C@@H](CO)C(=O)NCC(=O)N[C@@H](C)C(=O)N1CCC[C@H]1C(=O)N1CCC[C@H]1C(=O)N1CCC[C@H]1C(=O)N[C@@H](CO)C(N)=O) [Peptide 22],6.41
